The supplement of paper PMC11865577

How the values were obtained:
Assay in all cases: pull-down binding Z-score (relative to library population); higher = stronger binding
[1] = test system: TO-3-N3-2 (biotin conjugate); conditions: RNA library: Library-2
Method in brief: (§1)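 Biotin-conjugated small molecule (100 pmol) on streptavidin beads was incubated with 1 μg of heat-folded Cy5- or Cy3-end-labelled RNA library in phosphate/NaCl/KCl buffer at 25 °C for 60 min. Following three washes, RNA was eluted with hot SDS and hybridised at 55.5 °C for 20 h to a DNA barcode microarray. The binding value is a Z-score computed from the library mean and standard deviation, after subtraction of beads without compound and averaging of barcoded replicate probes with the highest and lowest excluded.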

[2] = test system: TO-3-N3 (biotin conjugate); conditions: RNA library: Library-2
Method in brief: as §1

[3] = test system: G-clamp-N3 (biotin conjugate); conditions: RNA library: Library-1 (pre-miRNA loops + repeats)
Method in brief: as §1

[4] = test system: TO-N3-2 (biotin conjugate); conditions: RNA library: Library-2
Method in brief: as §1

TO-N3 (biotin conjugate) = conditions: RNA library: Library-2
Method in brief: as §1

Sequence	pull-down binding Z-score [1]	pull-down binding Z-score [2]	pull-down binding Z-score [3]	pull-down binding Z-score [4]	pull-down binding Z-score (TO-N3 (biotin conjugate))
GAGACACCCGCUACCUGGUGUU [hsa-mir-4321]	-0.213	-0.271	-0.619	0.471	-0.0464
UGGCCAUUUCCUACCA [hsa-mir-617]	-0.393	-0.72	-1.33	-0.383	-0.908
GGUUGUUUAAUUAGGAACCAACU [hsa-mir-190b]	0.0266	-0.247	-0.019	-0.593	-0.293
UAGGGCGCGGAGGGCGGACCGGGAA [hsa-mir-638]	6.57	5.36	0.973	4.4	5.19
AGUGUUGUUUUUUCCCCCGCCAAUAUU [hsa-mir-92b]	0.29	-0.34	-0.606	0.0118	-0.16
UUGGCGUUAAGAUUCUAAAAUUAUCUCCAG [hsa-mir-16-1]	-0.307	-0.825	-1.03	-0.642	-0.952
UCUGUUUUAAGUAACAGA [hsa-mir-7705]	-0.214	-0.812	0.244	-1.85	-1.32
CUCCUAUUGAAAAUGAACAGGAG [hsa-mir-873]	-0.299	-0.0676	-0.315	-0.875	-0.285
AGAAGCCCAGGUUCUGAAUCCCCU [hsa-mir-6734]	0.23	0.393	-1.05	0.901	0.628
UAGAUGAAUAAAUGAAUGACUCAUCA [hsa-mir-545]	0.146	-0.346	-0.383	-0.21	-0.414
GGGAUAUUUGCAUUAUACUUAUCC [hsa-mir-5009]	0.015	0.0656	-0.101	-0.458	-0.0499
UCCAGGCAUCUGUGUCUG [hsa-mir-4669]	0.402	1.48	-0.0379	0.591	1.52
GCCCCAGGGCAGGGGC [hsa-mir-4515]	-0.473	-0.247	1.01	-0.972	-0.583
ACAUGCAGUAUUUGG [hsa-mir-1302-8]	-0.047	-0.326	0.976	-0.0326	-0.242
GUUACUAAUCUAACUAAUUGUAAC [hsa-mir-582]	0.0952	0.0863	1.11	-0.722	0.00217
CAGAGGUCCCACAGCAGGGCUGGAAAGCACACCUGUGGGACUUCUG [hsa-mir-3922]	0.0101	0.224	0.395	-0.164	0.231
AAAUUGCAGACACUAGGACCAUGUCUUGGUUUUUGCAAUAAUG [hsa-mir-1248]	-0.133	-0.228	0.0385	-0.641	-0.189
CUGGGGACUGUGUGGACUGGUAUCACCCAG [hsa-mir-2278]	-0.298	-0.242	0.134	0.585	0.225
CCUAGAGUCCAUUCUUUACUCUAGG [hsa-mir-4779]	-0.586	-0.699	-0.507	-1.28	-1.18

Sequence	pull-down binding Z-score [1]	pull-down binding Z-score [2]	pull-down binding Z-score [3]	pull-down binding Z-score [4]	pull-down binding Z-score (TO-N3 (biotin conjugate))
UGUUGGCAGCCCAAGAUGACA [hsa-mir-4686]	-0.0148	0.375	-0.568	0.58	0.581
UGGACAGAAAUUUCCUUUUGAGGAAAUCUUUCCC [hsa-mir-4308]	-0.309	-0.486	-0.543	-0.367	-0.671
GUUGUUGUCUUACUGCGCUCAACAAC [hsa-mir-7-2]	-0.285	0.0252	0.767	-0.241	-0.0893
CUUGCUGUGACAUGACAAAAAUAAG [hsa-mir-302d]	0.294	0.449	-0.853	-0.107	0.357
AGGGUGGAGCCCACUGUGGCUCCUGACUCAGCCCU [hsa-mir-6893]	0.0411	-0.0543	-0.967	0.419	-0.0778
GGAAGAAGGCUGAGGGAGAUGCCUUCUUCC [hsa-mir-6512]	-0.106	-0.455	0.436	1.02	-0.155
AGAAAUCAAGCUAUUUGCUAAAAGUUCU [hsa-mir-6844]	0.246	-0.362	-0.369	-0.0563	-0.316
GGAGCUCAGCACCUGCCUGCCACCCACGCAGACCAGCCCCUGCUCUGUUCCCACAG [hsa-mir-4648]	0.329	0.85	-0.622	1.9	1.56
UGUUGGUUGAAGAUGCCUUUCAACA [hsa-mir-552]	-0.396	-0.807	0.0946	-0.598	-0.937
UUUACAUAUAAAUUUCUAUUUGU [hsa-mir-4503]	0.317	0.81	-1.51	-0.557	0.596
CUGCAGAGACGAGGCCUGUAG [hsa-mir-5682]	0.149	0.688	0.122	0.886	0.828
GUUGGAUGGUCUAAUUGUGAAGCUCCUAAC [hsa-mir-141]	-0.259	-0.103	-0.549	-0.0552	-0.138
CGCUGCUGGCUGCCUUCCAGCG [hsa-mir-4533]	-0.568	0.221	0.074	0.26	0.079
GGCUGGCCCCCUGCUUCGUGCCCAUCC [hsa-mir-937]	0.127	0.211	-1.14	1.53	0.83
UCCACCUAGACGGGCCUGGGUCAA [hsa-mir-4698]	-0.0391	0.349	-0.781	0.907	0.552
UUUUCGCUUUAUAUGUGACGAAAC [hsa-mir-495]	0.125	-0.605	0.0902	-0.531	-0.787
UGGGUGGAUCCUCUAUUUCCUUACGUGGGCCACUGG [hsa-mir-432]	-0.013	0.45	0.632	0.845	0.729
UCUUCCCAGAGUCAGGAAAA [hsa-mir-320c-1]	-0.0416	-0.17	-1.1	0.191	-0.0041
